The record followed here is US9766239.

Where no end group is shown, it is not given here. scaffold 1571 = not defined here

B1: Mut Peptide-60 (peptide)
peptide: DWARKNNKRKMNFNLGWGSC
B2: Mut Peptide-78 (peptide)
peptide: SWARSNNKRSKAFNLGWGSC
B3: Mut Peptide-81 (peptide)
peptide: AWARSNNSRSKAFNLGWGSC
B4: Mut Peptide-92 (peptide)
peptide: RWHRVKLRSHTELNRYIGSC
B5: Mut Peptide-93 (peptide)
peptide: RWVRVKLRSHTELNRYIGSC
B6: Mut Peptide-53 (peptide)
peptide: VWARKNNKRKKDFNAGWGSC
B7: Mut Peptide-94 (peptide)
peptide: RWVRVKLRSHTKLNRYIGSC
B8: nVLP81-81-1571 (designed binder)
peptide: AWARSNNSRSKAFNLGWGSC(scaffold 1571)
modifications: reading uncertain; also: two peptides coupled by Cys to scaffold 1571 (dimer)
B9: nVLP53-53-1571 (designed binder)
peptide: VWARKNNKRKKDFNAGWGSC(scaffold 1571)
modifications: reading uncertain; also: two peptides coupled by Cys to scaffold 1571 (dimer)
B10: nVLP92-92-1571 (designed binder)
peptide: RWHRVKLRSHTELNRYIGSC(scaffold 1571)
modifications: reading uncertain; also: two peptides coupled by Cys to scaffold 1571 (dimer)
B11: nVLP60-60-1571 (designed binder)
peptide: DWARKNNKRKMNFNLGWGSC(scaffold 1571)
modifications: reading uncertain; also: two peptides coupled by Cys to scaffold 1571 (dimer)
B12: nVLP94-94-1571 (designed binder)
peptide: RWVRVKLRSHTKLNRYIGSC(scaffold 1571)
modifications: reading uncertain; also: two peptides coupled by Cys to scaffold 1571 (dimer)
B13: nVLP55-55-1571 (designed binder)
peptide: VWARKNNSRSKDFNAGWGSC(scaffold 1571)
modifications: reading uncertain; also: two peptides coupled by Cys to scaffold 1571 (dimer)
B14: nVLP93-93-1571 (designed binder)
peptide: RWVRVKLRSHTELNRYIGSC(scaffold 1571)
modifications: reading uncertain; also: two peptides coupled by Cys to scaffold 1571 (dimer)
B15: nVLP78-78-1571 (designed binder)
peptide: SWARSNNKRSKAFNLGWGSC(scaffold 1571)
modifications: reading uncertain; also: two peptides coupled by Cys to scaffold 1571 (dimer)

The target in the first assay is Norovirus surrogate virus-like particle, type GII.4 Minerva strain (human Norovirus GII.4 Minerva strain). The experiment in a line: SPR, unpurified peptide against nVLP GII.4.
Take B1: the % Stability was determined as 44%, the Avg Binding (Spot 1/2) was found to be 134 and the koff was found to be 0.00487 s⁻¹.

B2 displayed a % Stability of 46%, an Avg Binding (Spot 1/2) of 169 and a koff of 0.00431 s⁻¹.

Molecule B3 returned a % Stability of 45%, an Avg Binding (Spot 1/2) of 128 and a koff of 0.00455 s⁻¹.

For the molecule B4, the % Stability was 57%, the Avg Binding (Spot 1/2) worked out at 230 and the koff is 0.00355 s⁻¹.

Regarding B5, the % Stability came out at 60%, the Avg Binding (Spot 1/2) was determined as 274 and the koff is 0.00332 s⁻¹.

B6 came in with a % Stability of 51%, an Avg Binding (Spot 1/2) of 189 and a koff of 0.00408 s⁻¹.

As to B7, the % Stability is 63%, the Avg Binding (Spot 1/2) came out at 358 and the koff was determined as 0.00294 s⁻¹.

Another assay shares this target. The experiment in a line: direct ELISA on purified GII.4 nVLP.
In turn, B8 yielded a Kd of 3 nM.

B9: the Kd was determined as 1 nM.

B10: the Kd came to 3 nM.

Turning to B11, the dissociation constant (Kd) came to 2 nM.

In turn, B12 gave a Kd of 1 nM.

On to B13, for which the Kd was 9 nM.

Turning to B14, the Kd was 4 nM.

In turn, B15 registered a Kd of 5 nM.

The next assay shares this target. The experiment in a line: capture of VLP from a dilute solution by the synbody.
In the case of B10, the Enrichment Factor from 1 ng/µL solution is 3.

Molecule B12 returned an Enrichment Factor from 1 ng/µL solution of 7.

B14 came in with an Enrichment Factor from 1 ng/µL solution of 10.

The target in the next assay is GII.4 Sydney# Norovirus VLP (Norovirus GII.4 Sydney strain). Described as above.
Molecule B12 yielded an Enrichment Factor from 1 ng/µL solution of 3.

Molecule B14 displayed an Enrichment Factor from 1 ng/µL solution of 3.
